The target in the test is T1, polyclonal human IgE (human).
T1 construct: Used at 10 nM to sensitise Hoxb8 mast cells overnight; also called surface IgE on Hoxb8 mast cells
T1 constant: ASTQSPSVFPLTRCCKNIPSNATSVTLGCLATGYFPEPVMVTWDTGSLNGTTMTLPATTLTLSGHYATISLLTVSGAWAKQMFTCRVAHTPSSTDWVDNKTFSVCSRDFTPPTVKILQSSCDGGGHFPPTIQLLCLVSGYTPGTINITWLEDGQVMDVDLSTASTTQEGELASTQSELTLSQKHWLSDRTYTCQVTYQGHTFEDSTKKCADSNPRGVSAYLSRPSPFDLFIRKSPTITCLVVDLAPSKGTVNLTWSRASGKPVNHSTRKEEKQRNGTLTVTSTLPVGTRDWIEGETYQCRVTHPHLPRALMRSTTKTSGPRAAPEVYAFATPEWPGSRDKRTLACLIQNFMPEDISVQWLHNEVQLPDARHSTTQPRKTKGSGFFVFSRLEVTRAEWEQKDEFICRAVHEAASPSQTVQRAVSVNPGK
As to the kind of experiment: flow cytometry of surface IgE on Hoxb8 mast cells with human FcεRI, 20 h; dissociation of IgE from FcεRI. For orientation: In flow cytometry, cells or beads pass a laser one at a time.

B1: C6 (antibody, human IgG1, kappa)
heavy: not shown
light: DIQLTQSPSSLSASVGDRVTITCRASKSVDADGDSYMNWYQAKPGRHPKLLIYAASYLESGVPSRFSGSGSGTDFTLTISSLQPEDFATYYCQQSHEDPYTFGQGTKVEIKRTVAAPSVFIFPPSDEQLKSGTASVVCLLNNFYPREAKVQWKVDNALQSGNSQESVTEQDSKDSTYSLSSTLTLSKADYEKHKVYACEVTHQGLSSPVTKSFNRGEC
notes: Whole IgG, comparator; also called Comparator 6; Comparator_6
For the molecule B1, the IC50 (as a rule, the concentration that inhibits the measured activity by half) came to 2010 nM.

B2: C5 (antibody, human IgG1, kappa)
heavy: not shown
light: DIQLTQSPSSLSASVGDRVTITCRASKSVDADGDSYMNWYQAKPGRHPKLLIYAASYLESGVPSRFSGSGSGTDFTLTISSLQPEDFATYYCQQSHEDPYTFGQGTKVEIKGRTVAAPSVFIFPPSDEQLKSGTASVVCLLNNFYPREAKVQWKVDNALQSGNSQESVTEQDSKDSTYSLSSTLTLSKADYEKHKVYACEVTHQGLSSPVTKSFNRGEC
notes: Whole IgG, comparator; also called Comparator 5; Comparator_5
B2 registered an IC50 of 1070 nM. Against the preceding molecule, the IC50 is about 1.9-fold lower.

B3: C4 (antibody, human IgG1, kappa)
heavy: not shown
light: DIQLTQSPSSLSASVGDRVTITCRASKSVDADGDSYMNWYQAKPGRHPKLLIYAASYLESGVPSRFSGSGSGTDFTLTISSLQPEDFATYYCQQSHEDPYTFGQGTKVEIKGGRTVAAPSVFIFPPSDEQLKSGTASVVCLLNNFYPREAKVQWKVDNALQSGNSQESVTEQDSKDSTYSLSSTLTLSKADYEKHKVYACEVTHQGLSSPVTKSFNRGEC
notes: Whole IgG, comparator; also called Comparator 4; Comparator_4
Molecule B3 gave an IC50 of 815 nM.
